Laboratory results taken from paper PMC9398005, “A Drosophila Su(H) model of Adams-Oliver Syndrome reveals cofactor titration as a mechanism underlying developmental defects” (PLoS Genetics, 2021).

Tests used:
Settings in all cases: both partners purified
[1] = target: T1, mouse Rbpj WT (53-474) (mouse, UniProt P31266 53-474); test: ITC; RAM peptide, Hairless or SHARP in the syringe, Su(H) or Rbpj in the cell; 50 mM sodium phosphate, 150 mM sodium chloride; 20 injections of 14 uL; triplicate; one site binding model; 20°C by the methods, 25°C by the legend of Fig 6
T1 construct: also called CBF1; mouse CSL; source: E. coli BL21 Tuner, pGEX-6P1, purified (glutathione resin, PreScission cleavage, SP ion exchange)

[2] = target: T2, mouse Rbpj E89G (53-474) (mouse, UniProt P31266 53-474, E89G); test: as above
T2 construct: also called analogous to human RBPJ E63G; source: E. coli BL21 Tuner, pGEX-6P1, purified (glutathione resin, PreScission cleavage, SP ion exchange)

[3] = target: T3, mouse Rbpj K195E (53-474) (mouse, UniProt P31266 53-474, K195E); test: as above
T3 construct: also called analogous to human RBPJ K169E; source: E. coli BL21 Tuner, pGEX-6P1, purified (glutathione resin, PreScission cleavage, SP ion exchange)

[4] = target: T4, mouse Rbpj (53-474) E89G (mouse, UniProt P31266 53-474, E89G); test: ITC; cofactor (RAM peptide, Hairless or SHARP) in the syringe, Su(H) or Rbpj in the cell; 50 mM sodium phosphate, 150 mM sodium chloride; 20 injections, triplicate, one site model; 25°C by the legend, 20°C by the methods
T4 construct: also called Rbpj E89G; E89G (analogous to human RBPJ E63G); source: E. coli BL21 Tuner, purified (ammonium sulfate, glutathione resin, PreScission cut, SP ion exchange)

[5] = target: T5, mouse Rbpj (53-474) K195E (mouse, UniProt P31266 53-474, K195E); test: as above
T5 construct: also called Rbpj K195E; K195E (analogous to human RBPJ K169E); source: E. coli BL21 Tuner, purified (ammonium sulfate, glutathione resin, PreScission cut, SP ion exchange)

[6] = target: T6, mouse Rbpj (53-474) WT (mouse, UniProt P31266 53-474); test: as above
T6 construct: also called WT Rbpj; WT RBPJ; source: E. coli BL21 Tuner, purified (ammonium sulfate, glutathione resin, PreScission cut, SP ion exchange)
T6 sequence (P31266 53-474): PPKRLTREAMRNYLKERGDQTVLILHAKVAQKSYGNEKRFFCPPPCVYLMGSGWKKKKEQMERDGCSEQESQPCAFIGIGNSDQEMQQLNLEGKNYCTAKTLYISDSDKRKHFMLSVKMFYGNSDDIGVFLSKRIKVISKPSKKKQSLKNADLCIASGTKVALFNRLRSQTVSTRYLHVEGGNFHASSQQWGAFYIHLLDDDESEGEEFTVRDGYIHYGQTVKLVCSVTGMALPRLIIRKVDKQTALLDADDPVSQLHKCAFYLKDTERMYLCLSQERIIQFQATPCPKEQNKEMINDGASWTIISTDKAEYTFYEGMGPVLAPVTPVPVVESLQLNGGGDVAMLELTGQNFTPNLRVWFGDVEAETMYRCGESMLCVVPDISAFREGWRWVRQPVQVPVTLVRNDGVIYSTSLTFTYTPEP

T3 sequence (P31266 53-474 K195E): as the sequence (P31266 53-474) above, with K143E counted along it
T1 sequence (P31266 53-474): as the sequence (P31266 53-474) above
T2 sequence (P31266 53-474 E89G): as the sequence (P31266 53-474) above, with E37G counted along it
T5 sequence (P31266 53-474 K195E): as the sequence (P31266 53-474) above, with K143E counted along it
T4 sequence (P31266 53-474 E89G): as the sequence (P31266 53-474) above, with E37G counted along it

Binder | Ka [1] | Kd [1] | Ka [2] | Kd [2] | Ka [3] | Kd [3] | Kd [4] | Kd [5] | Kd [6]
VLLSRKRRRQHGQLWFPEGFKVSEASKK (Notch1, RAM domain; also called mNotch1 RAM; mouse Notch 1 RAM; source: synthetic peptide (Peptide2.0, 95% purity)) [Notch1 RAM peptide (residues 1754-1781)] | 4.8e+07 M⁻¹ | 20.8 nM | 5.6e+07 M⁻¹ | 19.9 nM | 5.1e+07 M⁻¹ | 22.4 nM |  |  | 
VLLSRKRRRQHGQLWFPEGFKVSEASKK (Notch1 RAM domain; the methods give human Notch1 residues 1754-1781, the results and the legend call it the mouse RAM domain; Methods say human Notch1 residues, results say mouse; also called mouse Notch 1 RAM; mouse RAM domain from Notch1; source: synthetic peptide (Peptide2.0, 95% purity)) [Notch1 RAM peptide (human Notch1 residues 1754-1781)] |  |  |  |  |  |  | ~20 nM | ~20 nM | ~20 nM
SHARP residues 2776-2833 (domain or fragment, human, UniProt Q96T58 2776-2833, looked up, called mouse SHARP in the results and the legend; also called mouse SHARP; mouse co-repressor SHARP; source: recombinant from pSMT3, purified as previously described) RASANENSRFHPGSMPVIDDRPADAGSGAGLRVNTSEGVVLLSYSGQKTEGPQRISAK |  |  |  |  |  |  | ~5 nM | 21 nM | ~5 nM
SHARP residues 2776-2833 (domain or fragment, human, UniProt Q96T58 2776-2833, looked up, the methods say human SHARP, the results and legend say mouse SHARP; species told as human in the methods and as mouse in the results and legend; also called mouse SHARP; source: bacterial recombinant, pSMT3, purified as previously described) RASANENSRFHPGSMPVIDDRPADAGSGAGLRVNTSEGVVLLSYSGQKTEGPQRISAK | 1.5e+09 M⁻¹ | 3.5 nM | 2.9e+08 M⁻¹ | 5.2 nM | 5.8e+07 M⁻¹ | 21.1 nM |  |  | 
